Each block holds one substance with its values, some of them ahead of it.
Tests used:
Experiment in all cases: ITC
[1] = target: SSB tetramer-(dT)70 1:1 complex (fully wrapped (SSB)65-like) (UniProt P0AGE0)
[2] = target: P15, SSB C-terminal 15-mer peptide (UniProt P0AGE0)
[3] = target: P9, SSB C-terminal 9-mer peptide (UniProt P0AGE0)
[4] = target: SSB tetramer-(dT)70 1:1 complex (fully wrapped (SSB)65-like) (UniProt P0AGE0); conditions: pH 8.1, 25 °C, 20 mM NaCl, buffer H: 10 mM Hepes
[5] = target: SSB (single-stranded DNA binding protein), full length (UniProt P0AGE0); conditions: pH 7.0, 25 °C, 0.2 M NaCl, buffer C: 10 mM cacodylate
[6] = pH 7.0, 25 °C, 0.2 M NaCl, buffer C: 10 mM cacodylate
[7] = pH 7.5, 25 °C, 0.2 M NaCl, buffer T: 10 mM Tris
[8] = pH 7.0, 25 °C, 20 mM NaCl, buffer C: 10 mM cacodylate, pH 7.0
[9] = pH 7.0, 25 °C, 200 mM NaCl, buffer C: 10 mM cacodylate, pH 7.0
[10] = pH 7.5, 25 °C, 20 mM NaCl, buffer T: 10 mM Tris, pH 7.5
[11] = pH 7.5, 25 °C, 20 mM NaCl, buffer T: 10 mM Tris

Chain of P9, SSB C-terminal 9-mer peptide (P0AGE0 whole entry, looked up, tested part not stated): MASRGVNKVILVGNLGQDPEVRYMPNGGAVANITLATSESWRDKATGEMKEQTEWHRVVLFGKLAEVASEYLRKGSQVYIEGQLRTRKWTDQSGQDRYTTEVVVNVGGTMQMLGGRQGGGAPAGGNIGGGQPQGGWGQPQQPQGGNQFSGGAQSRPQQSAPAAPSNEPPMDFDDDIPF
Chain of SSB tetramer-(dT)70 1:1 complex (fully wrapped (SSB)65-like) (P0AGE0 whole entry, one chain of several): as the sequence (P0AGE0 whole entry, looked up, tested part not stated) above
Chain of SSB (single-stranded DNA binding protein), full length (P0AGE0 whole entry): as the sequence (P0AGE0 whole entry, looked up, tested part not stated) above

Kobs [1, 6]: (3.7±0.5)×10^6 M^−1
ΔHobs [1, 6]: -18.3 kcal/mol
Kobs [1, 7]: (1.9±0.5)×10^6 M^−1
ΔHobs [1, 7]: -8.6 kcal/mol
protons absorbed on complex formation ([2]; pH 7.0-7.5, 25 °C, 20 mM NaCl, buffer T: 10 mM Tris, pH 7.5): 1 protons
K (observed association constant) [2, 8]: 2.7e+06 M⁻¹
ΔH (observed) [2, 8]: -20.7 kcal/mol
K (observed association constant) [2, 9]: 360000 M⁻¹
K (observed association constant) [2, 10]: 1.6e+06 M⁻¹
ΔH (observed) [2, 10]: -7 kcal/mol
K (observed association constant) [3, 9]: 180000 M⁻¹
K (observed association constant) [3, 10]: 2e+06 M⁻¹
ΔH (observed) [3, 10]: -6.7 kcal/mol
Substance: PriA helicase (primosomal protein N')

Kobs [4]: (3.8±0.4)×10^6 M^−1
Kobs [5]: (3.0±0.7)×10^5 M^−1
Kobs [1, 6]: (5.4±1.0)×10^5 M^−1
Kobs [1, 8]: (7.6±1.6)×10^6 M^−1
ΔHobs [1, 8]: -8.7 kcal/mol
Kobs ([1]; pH 8.1, 25 °C, 20 mM NaCl, buffer H: 10 mM Hepes): (5.5±0.8)×10^6 M^−1
ΔHobs ([1]; pH 8.1, 25 °C, 20 mM NaCl, buffer H: 10 mM Hepes, pH 8.1): -8.9 kcal/mol
K (observed association constant) [2, 8]: 1.5e+06 M⁻¹
ΔH (observed) [2, 8]: -9.5 kcal/mol
ΔH (observed) [2, 11]: -7.7 kcal/mol
K (observed association constant) [2, 10]: 800000 M⁻¹
K (observed association constant) [3, 8]: 1.6e+06 M⁻¹
ΔH (observed) [3, 8]: -7.9 kcal/mol
ΔH (observed) [3, 11]: -8.2 kcal/mol
K (observed association constant) [3, 10]: 800000 M⁻¹
Substance: χ (chi) subunit of DNA polymerase III holoenzyme (HolC)

From publication PMC2861366
